# Paper PMC4519192, “In vitro Selection and Interaction Studies of a DNA Aptamer Targeting Protein A”
# B1: PA#2/8[S19-76] (structured_DNA)
# DNA: AGCAACATGAGGGGGATAGAGGGGGTGGGTTCTCTCGGCTACAATCGTAATCAGTTAG
# B2: PA#2/8[S1-58] 5'-fluorescein (structured_DNA)
# DNA: ATACCAGCTTATTCAATTAGCAACATGAGGGGGATAGAGGGGGTGGGTTCTCTCGGCT
# B3: PA#2/8[S1-58] 3'-biotin (structured_DNA)
# DNA: B2 DNA
# B4: PA#2/8 5'-fluorescein (structured_DNA)
# DNA: ATACCAGCTTATTCAATTAGCAACATGAGGGGGATAGAGGGGGTGGGTTCTCTCGGCTACAATCGTAATCAGTTAG
# B5: PA#2/8 3'-biotin (structured_DNA)
# DNA: B4 DNA
# Tests used:
# [1] = target: T1, Protein A, native (Sigma P3838) (Staphylococcus aureus, UniProt P38507 37-477); experiment: MST; 25 C, in solution; conditions: protein: native, label: 5'-fluorescein
# [2] = target: T2, Protein A, recombinant (Sigma P7837) (UniProt P38507 37-327); experiment: MST; 25 C, in solution; conditions: protein: recombinant, label: 5'-fluorescein
# [3] = target: T3, Protein A, native biotinylated (Sigma P2165) (Staphylococcus aureus, UniProt P38507 37-477); experiment: bead-based fluorescence binding; conditions: tags: biotin, label: 5'-fluorescein
# [4] = target: T3, Protein A, native biotinylated (Sigma …); experiment: SPR; steady state; Protein A immobilized ~600 RU; conditions: tags: biotin, label: 5'-fluorescein
# [5] = target: T2, Protein A, recombinant (Sigma P7837); experiment: SPR; steady state; aptamer immobilized 1030 RU; conditions: label: 3'-biotin, predicted stem-loop
# [6] = target: T3, Protein A, native biotinylated (Sigma …); experiment: SPR; kinetic 1:1 fit; ka 1.23e3 M-1s-1, kd 1.66e-3 s-1; conditions: tags: biotin, label: 5'-fluorescein
# [7] = target: T3, Protein A, native biotinylated (Sigma …); experiment: bead-based fluorescence binding; Protein A on streptavidin beads; conditions: tags: biotin, label: 5'-fluorescein
# [8] = target: human thrombin (89223 Fluka) (human, UniProt P00734;P00734 328-363;364-622); experiment: SPR
# [9] = target: Protein G, recombinant (Pierce 21193) (group G Streptococci, UniProt P06654 228-352); experiment: SPR; 1000 nM protein; conditions: label: 3'-biotin, predicted stem-loops, possible G4
# Sequence of Protein G, recombinant (Pierce 21193) (P06654 228-352): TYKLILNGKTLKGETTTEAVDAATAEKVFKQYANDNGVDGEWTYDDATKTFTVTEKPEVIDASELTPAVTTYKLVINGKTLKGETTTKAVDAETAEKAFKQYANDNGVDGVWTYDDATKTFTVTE
# [10] = target: T2, Protein A, recombinant (Sigma P7837); experiment: SPR; single-cycle mode; aptamer 516 RU; conditions: label: 3'-biotin
# [11] = target: T2, Protein A, recombinant (Sigma P7837); experiment: SPR; steady state; aptamer immobilized 1086 RU; avidity; conditions: label: 3'-biotin
# [12] = target: T1, Protein A, native (Sigma P3838); experiment: SPR; steady state; aptamer immobilized 1158 RU; avidity; conditions: label: 3'-biotin
binder,measurement,setting,value
ATACCAGCTTATTCAATTAGCAACATGAGGGGGATAGAGGGGG (structured_DNA) [PA#2/8[S1-43]],Kd,[1]; predicted stem-loop,214 ± 46.1 nM
same,Kd,[2]; predicted stem-loop,579 ± 123 nM
GATAGAGGGGGTGGGTTCTCTCG (structured_DNA) [PA#2/8KR23],binding result,[3],no binding
B1,binding result,[3],no binding
ATACCAGCTTATTCAATTAGCAACATGA (structured_DNA) [PA#2/8[S1-28]],binding result,[3],no binding
AGCAACATGAGGGGGATAGAGGGGGTGGGTTCTCTCGGCT (structured_DNA) [PA#2/8KR40],binding result,[3],no binding
B2,Kd,[1]; predicted stem-loop,222 ± 60.5 nM
same,Kd,[2]; predicted stem-loop,94.7 ± 64.6 nM
same,Kd,[4]; predicted stem-loop,1920 ± 250 nM
B3,Kd,[5],287 ± 16.2 nM
ATACCAGCTTATTCAATTAGCAACATGAGGGGGAT (structured_DNA) [PA#2/8[S1-35]],binding result,[3],no binding
B4,Kd,[1],668 ± 224 nM
same,Kd,[2],927 ± 404 nM
same,Kd,[4],2220 ± 180 nM
same,Kd,[6],1350 nM
same,Kd,[7],1060 ± 200 nM
B5,binding result,[8],no binding
same,binding result,[9],no binding
same,Kd,[10],148 ± 7.6 nM
same,Kd,[11],172 ± 14 nM
same,Kd,[12],84 ± 5 nM
